Experimental data reported in US20060102935A1, “Transistor-based biosensors having gate electrodes coated with receptor molecules” (priority 2002, published 2006).

Key:
[1] = biological target: T1, acetylcholine esterase (AChE) (Electrophorus electricus, UniProt O42275); assay: AChE-ISFET (AChE-FET) response to substrate and inhibitor in PBS; type: biochemical, electric eel; settings: dissolved in PBS, in comparison to ACh
T1 construct: purchased Sigma C1682
Procedure: In this experiment, the ISFET has undergone covalent bonding with acetylcholine-esterase using the aforementioned cyanuryl chloride techniques. As shown in the figure, the response of the ACHE-ISFET to various doses of acetylcholine (graph I). Acetylcholine was manually applied into a solution of 5 ml Phosphate Saline Buffer (PBS) in which the ISFET resided.
Both carbamylcholine and acetylcholine have been dissolved in phosphate buffered saline (PBS).
Acetylcholine esterase (C1682, taken from electric eel), acetylcholine-iodine, acetylcholine-chloride, cyanuric chloride and eserine (physostigmine), ere purchased from Sigma and were used as supplied.
ISFETs were first rinsed with isopropanol and dried under Argon. A is solution of 0.1M cyanuric chloride (in dichloromethane) was prepared and then applied to the Al2O3 gate surface of the ISFET. ISFETs were then dried with Argon and heated at 70° C. for 15 minutes, then rinsed again with dichloromethane and dried under Argon. […]
The resulting hybrid system of Example 3, was immersed in a PBS solution as a background electrolyte for the measurements. […] The current between source and drain electrodes (Ids) was measured, while potential between drain and source electrodes (Vds), and between the gate and source electrodes (Vgs) were kept constant at 0.1V and 0.45V, respectively, recording the electrical activity occurring at the gate surface.

CC(=O)OCC[N+](C)(C)C = assay: purified protein, by the assay type; settings: other: surface-bound AChE, Lineweaver-Burk plot, DTNB 5×10^−5 M
Procedure: In this test, the enzyme activity is measured by following the increase of yellow color produced from the reaction of thiocholine with the DTNB ion (Sawada, O., Ishida, T., Kihachiro, H., J. Biochem., 129, 2001, 899-907).
The reaction of acetylthiocholine-iodide with DTNB (5,5′-dithio-bis (2-nitrobenzoic acid) marker was conducted by immersing the solid substrate containing the immobilized ACHE, obtained above, in an optical cell compatible with the spectrophotometer. The rate of color production was measure at 410 nm. All of the investigated solutions were freshly prepared: ACh in phosphate buffer of pH=8.0 and the DTNB dissolved in PBS buffer of pH=6.5.
The enzyme activity was probed by two methods: Ex-situ and In-situ experiments. In the Ex-situ experiments the solution of the marker containing ACh is measured before and after the exposure to the immobilized ACHE substrate. The optical cell contains a solution composed of 2 ml of 2.5.10^−3 M ACh and 2 ml of 1.10^−4 M DTNB. The optical spectra were recorded before and after 15 min of the immobilized enzyme solution insertion to this optical cell. In the In-situ experiments, the substrate is immersed in the optical cell containing various concentrations of the DTNB/ACh solution. The hydrolysis product was followed in two ways: (a) by recording the spectra in fixed time interval and (b) by the time course mode at 410 nm. […]

T1 sequence (O42275 24-633): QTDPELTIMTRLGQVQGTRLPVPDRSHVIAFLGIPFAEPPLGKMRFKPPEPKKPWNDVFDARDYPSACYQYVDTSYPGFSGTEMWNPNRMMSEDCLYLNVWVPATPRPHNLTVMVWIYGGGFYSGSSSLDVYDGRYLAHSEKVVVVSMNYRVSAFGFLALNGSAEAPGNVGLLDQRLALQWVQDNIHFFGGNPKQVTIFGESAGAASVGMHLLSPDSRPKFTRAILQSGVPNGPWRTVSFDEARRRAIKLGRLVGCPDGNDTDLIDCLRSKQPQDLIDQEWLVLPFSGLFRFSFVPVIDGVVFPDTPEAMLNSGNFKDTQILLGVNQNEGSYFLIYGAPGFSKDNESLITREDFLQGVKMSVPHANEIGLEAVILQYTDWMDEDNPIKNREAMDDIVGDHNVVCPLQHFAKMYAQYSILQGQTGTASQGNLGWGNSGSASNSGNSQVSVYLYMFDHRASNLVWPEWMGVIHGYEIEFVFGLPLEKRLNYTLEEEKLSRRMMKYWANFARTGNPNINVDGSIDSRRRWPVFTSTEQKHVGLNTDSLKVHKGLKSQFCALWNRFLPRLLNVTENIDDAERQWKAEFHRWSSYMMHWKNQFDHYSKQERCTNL

Row | Compound | response of AChE-ISFET on application to the solution [1] | Km (CC(=O)OCC[N+](C)(C)C) | Vmax (CC(=O)OCC[N+](C)(C)C)
1 | C[N+](C)(C)CCOC(N)=O.[Cl-] [Carbamylcholine] | no response |  | 
2 | surface-bound AChE (Electrophorus electricus) |  | 310 µM | 1e-07 M/s
